Assays:
LANTVATL peptide = biological target: T1, LANTVATL peptide; assay: size-exclusion chromatography of in vitro assembled heavy chain/β2m/ligand complex; settings: chain shown with the change; parent: est. 160; read off a plot
T1 chain: LANTVATL

[1] = biological target: T2, N-myristoylated 4-mer lipopeptide Myr-GAAL; assay: as above; settings: chain shown with the change; parent: est. 160; read off a plot
T2 chain: GAAL

B1: HLA-C∗14:02 heavy chain, ectodomain (soluble form) S9Y (protein)
chain: AGSHSMRYFYTSVSRPGRGEPRFIAVGYVDDTQFVRFDSDAASPRGEPRAPWVEQEGPEYWDRETQKYKRQAQTDRVSLRNLRGYYNQSEAGSHTLQWMFGCDLGPDGRLLRGYDQSAYDGKDYIALNEDLRSWTAADTAAQITQRKWEAAREAEQRRAYLEGTCVEWLRRYLENGKETLQRAEHPKTHVTHHPVSDHEATLRCWALGFYPAEITLTWQWDGEDQTQDTELVETRPAGDGTFQKWAAVVVPSGEEQRYTCHVQHEGLPEPLTLRWEP
response (LANTVATL peptide): 180 mAU | response [1]: 30 mAU
